Consider 2 molecules from PMC6175992, “Telomeric Repeat-Binding Factor Homologs in Entamoeba histolytica: New Clues for Telomeric Research”.

The series deals with T1, rEhTRF-like I (Entamoeba histolytica, UniProt C4M1I9 1-404).
T1 sequence: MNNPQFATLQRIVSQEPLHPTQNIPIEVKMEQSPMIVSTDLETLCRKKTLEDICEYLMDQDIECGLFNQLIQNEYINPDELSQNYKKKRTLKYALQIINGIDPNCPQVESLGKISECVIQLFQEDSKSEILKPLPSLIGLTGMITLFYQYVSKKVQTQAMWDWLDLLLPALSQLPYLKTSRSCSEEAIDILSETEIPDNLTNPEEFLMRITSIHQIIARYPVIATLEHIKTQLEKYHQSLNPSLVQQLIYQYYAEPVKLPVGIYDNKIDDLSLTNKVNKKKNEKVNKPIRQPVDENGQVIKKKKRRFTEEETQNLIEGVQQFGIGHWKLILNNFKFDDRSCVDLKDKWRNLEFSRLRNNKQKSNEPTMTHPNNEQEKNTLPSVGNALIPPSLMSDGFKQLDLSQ
Put plainly: EMSA; competed by unlabeled HsTEL and EhTEL; 12 mM HEPES pH 7.9, 60 mM KCl, 5 mM MgCl2, 1 mM EDTA, 4 mM Tris-HCl, 5 mM DTT, 10% glycerol, 4 mM spermidine, 4 mM MgCl (so in the source), 50 ng poly dI-dC, protease inhibitors; 20 min at 4 C; 106.86 uM rEhTRF-like I or 10 ug nuclear extract, 1 ng probe. Particulars: protein: recombinant; tags: His tag (pCold I); label: 32P; 5' overhangs on both strands.

B1: HsTEL (dsDNA)
DNA 1: GCTCTAGGGTTAGGGTTAGGGTTAGGGTTA
DNA 2: CATCTACCCTAACCCTAACCCTAACCCTAA
Take B1: the binding result is on record as “binds”.

B2: EhTEL (dsDNA)
DNA 1: GCTCTATTAGTATTTTAGTATTTTAGTATTTTAGTATT
DNA 2: CATCTAGAGCAATACTAAAATACTAAAATACTAAAATACTAA
For the molecule B2, the binding result is “binds”.
